Assay results taken from patent US20070082364A1 (Takeda / Millennium, published 2007).

Legend:
human GPR8 = human GPR8 (human, UniProt P48146 1-333); experiment: cell-based or functional assay
human GPR7 = molecular target: T1, human GPR7 (human, UniProt P48145 1-328); experiment: cell-based or functional assay
T1 sequence: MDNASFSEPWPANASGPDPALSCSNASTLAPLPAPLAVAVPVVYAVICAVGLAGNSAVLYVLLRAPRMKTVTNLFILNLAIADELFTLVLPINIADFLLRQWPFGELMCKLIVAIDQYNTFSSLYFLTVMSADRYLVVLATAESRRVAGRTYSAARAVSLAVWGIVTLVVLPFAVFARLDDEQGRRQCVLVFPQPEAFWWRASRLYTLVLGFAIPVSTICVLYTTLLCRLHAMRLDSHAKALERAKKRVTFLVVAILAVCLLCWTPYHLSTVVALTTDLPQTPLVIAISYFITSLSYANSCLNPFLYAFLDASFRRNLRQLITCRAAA

Chain of human GPR8 (P48146 whole entry): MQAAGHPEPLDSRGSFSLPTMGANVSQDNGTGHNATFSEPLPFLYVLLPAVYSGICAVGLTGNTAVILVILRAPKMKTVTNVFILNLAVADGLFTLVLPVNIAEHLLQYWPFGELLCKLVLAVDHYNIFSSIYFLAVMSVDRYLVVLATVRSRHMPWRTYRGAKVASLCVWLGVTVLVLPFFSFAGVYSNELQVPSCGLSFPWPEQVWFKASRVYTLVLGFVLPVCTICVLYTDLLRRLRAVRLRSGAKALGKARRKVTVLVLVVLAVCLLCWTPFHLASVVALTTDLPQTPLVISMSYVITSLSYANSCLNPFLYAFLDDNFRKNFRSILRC

cAMP level in human GPR8-expressed cells, relative to FSK stimulation only (human GPR8): 31%
cAMP level in human GPR7-expressed cells, relative to FSK stimulation only (human GPR7): 46%
B1: human neuropeptide W (1-23) (peptide)
peptide: WYKHVASPRYHTVGRAAGLLMGL
